Assay results from US20050276799A1 (PDL BIOPHARMA, published 2005).
Like-named read-outs stand apart in the source and are kept apart here.

What was measured:
[1] = target: T1, recombinant, GPI-linked rhesus FcRn on cell line NS0 RhFcRn, clone R-3 (rhesus, UniProt H9Z6D2 24-297; Q6V7J5 21-119, GPI-linked); assay: IC50 of wild-type / IC50 of this antibody, same assay
T1 construct: Expressed from pDL410 on the surface of NS0 cells; not shown: human c-myc decapeptide flanked by linker peptides, then GPI linkage signal of human decay accelerating factor (vector p)

[2] = target: T2, recombinant, GPI-linked human FcRn on cell line NS0 HuFcRn (memb), clone 7-3 (human, UniProt P55899 24-297; P61769 21-119); assay: as above
T2 construct: Expressed from pDL208 on the surface of NS0 cells; also called human neonatal Fc receptor; not shown: human c-myc decapeptide flanked by linker peptides, then GPI linkage signal of human decay accelerating factor (vector p)

[3] = target: T2, recombinant, GPI-linked human FcRn on …; assay: competition FACS vs biotinylated human IgG on NS0 cells expressing human FcRn, FBB pH 6.0
[4] = target: T1, recombinant, GPI-linked rhesus FcRn on …; assay: competition FACS vs biotinylated human IgG on NS0 cells expressing rhesus FcRn, FBB pH 6.0
[5] = target: T2, recombinant, GPI-linked human FcRn on …; assay: competition FACS vs biotinylated human IgG on NS0 cells expressing human FcRn, FBB pH 6.0; remark: listed apart in the source
[6] = target: T2, recombinant, GPI-linked human FcRn on …; assay: IC50 of wild-type / IC50 of this antibody, same assay; remark: listed apart in the source
[7] = target: T1, recombinant, GPI-linked rhesus FcRn on …; assay: competition FACS vs biotinylated human IgG on NS0 cells expressing rhesus FcRn, FBB pH 6.0; remark: listed apart in the source
[8] = target: T1, recombinant, GPI-linked rhesus FcRn on …; assay: IC50 of wild-type / IC50 of this antibody, same assay; remark: listed apart in the source
[9] = target: T2, recombinant, GPI-linked human FcRn on …; assay: pH-dependent binding and release FACS on NS0 cells expressing human FcRn (FIG. 15B)

Binder | Relative Binding [1] [ratio] | Relative Binding [2] [ratio] | IC50 [5] [µg/mL] | Relative Binding [6] [ratio] | IC50 [7] [µg/mL] | Relative Binding [8] [ratio] | other results
Hu1D10-IgG3 wild-type (antibody) heavy: QVQLQESGPGLVKPSETLSLTCTVSGFSLTNYGVHWVRQSPGKGLEWIGVKWSGGSTEYNAAFISRLTISKDTSKNQVSLKLNSLTAADTAVYYCARNDRYAMDYWGQGTLVTVSSASTKGPSVFPLAPCSRSTSGGTAALGCLVKDYFPEPVTVSWNSGALTSGVHTFPAVLQSSGLYSLSSVVTVPSSSLGTQTYTCNVNHKPSNTKVDKRVELKTPLGDTTHTCPRCPEPKSCDTPPPCPRCPEPKSCDTPPPCPRCPEPKSCDTPPPCPRCPAPELLGGPSVFLFPPKPKDTLMISRTPEVTCVVVDVSHEDPEVQFKWYVDGVEVHNAKTKLREEQYNSTFRVVSVLTVLHQDWLNGKEYKCKVSNKALPAPIEKTISKAKGQPREPQVYTLPPSREEMTKNQVSLTCLVKGFYPSDIAVEWESNGQPENNYNTTPPMLDSDGSFFLYSKLTVDKSRWQQGNIFSCSVMHEALHNRYTQKSLSLSPGK light: DIQMTQSPSSLSASVGDRVTITCRASENIYSYLAWYQQKPGKAPKLLVSNAKTLAEGVPSRFSGSGSGKQFTLTISSLQPEDFATYYCQHHYGNSYPFGQGTKLEIKRTVAAPSVFIFPPSDEQLKSGTASVVCLLNNFYPREAKVQWKVDNALQSGNSQESVTEQDSKDSTYSLSSTLTLSKADYEKHKVYACEVTHQGLSSPVTKSFNRGEC | 1 | 1 |  |  |  |  | 
Hu1D10-IgG3 M428L (antibody) heavy: QVQLQESGPGLVKPSETLSLTCTVSGFSLTNYGVHWVRQSPGKGLEWIGVKWSGGSTEYNAAFISRLTISKDTSKNQVSLKLNSLTAADTAVYYCARNDRYAMDYWGQGTLVTVSSASTKGPSVFPLAPCSRSTSGGTAALGCLVKDYFPEPVTVSWNSGALTSGVHTFPAVLQSSGLYSLSSVVTVPSSSLGTQTYTCNVNHKPSNTKVDKRVELKTPLGDTTHTCPRCPEPKSCDTPPPCPRCPEPKSCDTPPPCPRCPEPKSCDTPPPCPRCPAPELLGGPSVFLFPPKPKDTLMISRTPEVTCVVVDVSHEDPEVQFKWYVDGVEVHNAKTKLREEQYNSTFRVVSVLTVLHQDWLNGKEYKCKVSNKALPAPIEKTISKAKGQPREPQVYTLPPSREEMTKNQVSLTCLVKGFYPSDIAVEWESNGQPENNYNTTPPMLDSDGSFFLYSKLTVDKSRWQQGNIFSCSVLHEALHNRYTQKSLSLSPGK light: DIQMTQSPSSLSASVGDRVTITCRASENIYSYLAWYQQKPGKAPKLLVSNAKTLAEGVPSRFSGSGSGKQFTLTISSLQPEDFATYYCQHHYGNSYPFGQGTKLEIKRTVAAPSVFIFPPSDEQLKSGTASVVCLLNNFYPREAKVQWKVDNALQSGNSQESVTEQDSKDSTYSLSSTLTLSKADYEKHKVYACEVTHQGLSSPVTKSFNRGEC | 4.6 | 6.3 |  |  |  |  | IC50 [3]: 2.29 µg/mL; IC50 [4]: 3.03 µg/mL
Hu1D10-IgG4 T250Q/M428L (antibody) heavy: not shown light: DIQMTQSPSSLSASVGDRVTITCRASENIYSYLAWYQQKPGKAPKLLVSNAKTLAEGVPSRFSGSGSGKQFTLTISSLQPEDFATYYCQHHYGNSYPFGQGTKLEIKRTVAAPSVFIFPPSDEQLKSGTASVVCLLNNFYPREAKVQWKVDNALQSGNSQESVTEQDSKDSTYSLSSTLTLSKADYEKHKVYACEVTHQGLSSPVTKSFNRGEC |  |  | 1.07 | 71 | 1.27 | 77 | 
Hu1D10-IgG4 M428L (antibody) heavy: not shown light: DIQMTQSPSSLSASVGDRVTITCRASENIYSYLAWYQQKPGKAPKLLVSNAKTLAEGVPSRFSGSGSGKQFTLTISSLQPEDFATYYCQHHYGNSYPFGQGTKLEIKRTVAAPSVFIFPPSDEQLKSGTASVVCLLNNFYPREAKVQWKVDNALQSGNSQESVTEQDSKDSTYSLSSTLTLSKADYEKHKVYACEVTHQGLSSPVTKSFNRGEC |  |  | 5.03 | 15 | 6.64 | 15 | 
OST577-IgG1 T250D (antibody) heavy: not shown light: SYVLTQPPSVSVAPGQTARITCGGDNIGSKSVNWFQQKPGQAPVLVVYDDNERPSGISERFSGSNSGNTATLTISRVEAGDEADYYCQVWDSSSDHVVFGGGTKLTVLGQPKAAPSVTLFPPSSEELQANKATLVCLISDFYPGAVTVAWKADSSPVKAGVETTTPSKQSNNKYAASSYLSLTPEQWKSHRSYSCQVTHEGSTVEKTVAPTECS |  |  |  |  |  |  | binding result [9]: binds
